Positions of bridges follow the written chain, without caps; N, C: chain ends. Non-standard residues stand in square brackets, D forms with d. Residues, ends and D or L forms follow the SMILES beside them. No end group written: not given here. Bip = N[C@@H](Cc1ccc(-c2ccccc2)cc1)C(=O)O; Hyp = O=C(O)[C@@H]1C[C@@H](O)CN1; Nle = CCCC[C@H](N)C(=O)O; Orn = NCCC[C@H](N)C(=O)O; Aib = CC(C)(N)C(=O)O
What was measured:
[1] = In vitro plasma stability and predicted half-life (HPLC main peak area, Example 3); type: in vitro ADME; details: human plasma (EDTA anticoagulant), 37°C, sampled up to 24 h, predicted half-life calculated with Winolin
Procedure: The modified peptides in this study were designed with non-natural amino acid substitutions at certain non-essential positions to enhance peptide stability and improve druggability. Peptides were dissolved in deionized water to 2 mg/mL, then diluted with acetonitrile to 1 mg/mL and filtered through an organic membrane. 200 µL of the filtrate was transferred to an LC vial as the peptide control. 300 µL of human plasma (comprising EDTA as anticoagulant, Nanjing Senbeijia Biotechnology Co., Ltd., Lot No. SBJ-P-HU011-100 mL) was mixed with 300 µL acetonitrile, centrifuged at 4°C and 12,000 rpm for 5 minutes. The supernatant was filtered through an organic membrane, and 200 µL of the filtrate was transferred to an LC vial as the plasma blank control. For peptide samples, 10 mg of peptide was weighed mixed with 5 mL of human plasma and vortexed thoroughly. 300 µL of peptide-containing plasma was mixed with 300 µL acetonitrile, centrifuged at 4°C and 12,000 rpm for 5 minutes, and the supernatant was filtered through an organic membrane. 200 µL of the filtrate was transferred to an LC vial as the 0 min sample. Peptide-containing plasma was incubated in a 37°C water bath, and samples at other time points were collected using the same procedure as the 0 min sample. For peptides AJ003 and AJ003-1, the sampling time points were 0 min, 5 min, 10 min, 20 min, 30 min, 1 h, 2 h, 4 h, 6 h, 10 h, 12 h, and 24 h. For modified peptides AJ003-34, AJ003-35, AJ003-36, AJ003-37, AJ003-38, AJ003-39, AJ003-40, AJ003-41, and AJ003-42, the time points were 0 min, 10 min, 30 min, 1 h, 4 h, 6 h, 10 h, 12 h, and 24 h. All peptide sample series were analyzed by HPLC, recording the changes in main peak areas over plasma incubation time. Predicted in vitro half-lives were calculated using the pharmacokinetic software Winolin. Due to the presence of tautomers, AJ003 peak areas were difficult to integrate accurately over time. AJ003-1 is an analog of AJ003 in which the threonine at position 5 is substituted with D-threonine; its sequence differs from AJ003 by only one amino acid configuration. […] The in vitro plasma half-lives of modified peptides AJ003-34, AJ003-35, AJ003-36, AJ003-37, AJ003-38, AJ003-39, AJ003-40, AJ003-41, and AJ003-42 were 61.9 h, 45.3 h, 65.3 h, 71.0 h, 26.7 h, 43.0 h, 84.0 h, 30.0 h, and 61.4 h, respectively.

[2] = tested on: rat paclitaxel-induced chronic chemotherapy pain model; experiment: Rat paclitaxel chemotherapy pain model, same dose (Example 5); type: in vivo; details: 1 mg/kg s.c.
Procedure: Male SPF (Specific Pathogen Free) SD rats weighing 180-200 g (Shanghai Institute of Planned Parenthood Research, Experimental Animal Department) were used. On the day of model induction, rats were weighed, and baseline mechanical pain thresholds were measured. Animals with large differences in body weight or pain threshold were excluded, and the remaining rats were subjected to the experimental protocol. Paclitaxel powder was dissolved in olive oil to 1 mg/mL. Each rat received an intraperitoneal injection of 2 mg/kg per dose. Four injections were administered on days 1, 3, 5, and 7. Rats in the negative control or vehicle control group received injections of the solvent used to dissolve paclitaxel. […] The blank group in Table 4 represents rats without pain modeling, and the model group represents rats with pain modeling but no drug treatment. On days 1, 3, 5, and 12, drugs were administered at fixed times. On days 1, 3, and 5, mechanical pain thresholds of the right hind paw at the corresponding time were measured at 1 h, 2.5 h, 4 h, and 5.5 h after dosing using a blunt probe. On day 12, mechanical pain thresholds were measured at 4 h and 7 h after dosing. […] AJ003-36 and AJ003-40 were thus identified as candidate molecules for further study. Paclitaxel is a widely used small-molecule chemotherapy drug that, while effective against tumors, can induce neuropathic pain in many cancer patients due to neurotoxicity. The chronic chemotherapy pain model induced in male SD rats via multiple low-dose intraperitoneal injections of paclitaxel simulates clinical chemotherapy-induced neuropathic pain. Using this model, the analgesic effects of five modified peptides, the parent peptide AJ003, and the positive control pregabalin were evaluated. […] Table 4 Dosing Scheme for Screening Analgesic Activity of Selected Modified Peptides at the Same Dose in the Paclitaxel Chemotherapy Pain Model

α7 nAChR [3] = target: α7 nAChR (Homo sapiens, UniProt P36544); experiment: BLI (biolayer interferometry) affinity of peptides to α7 nAChR; type: binding; design: inferred from the 'similar' procedure on NTA sensors; details: NTA sensor, α7 nAChR 20 µg/mL, peptide 1.372-1000 nM in PBS
Description: BLI is a label-free technology that converts optical interference signals occurring on the surface of BLI biosensors into real-time response signals. By monitoring the molecular binding process in real time, the system determines association rate constants (ka or kon), dissociation rate constants (kd or koff), and initial binding rates, and calculates affinity (KD) by fitting analysis. Here are the specific procedures: NTA sensors (Sartorius) were placed in a pre-wetting tray, which was then positioned in a black 96-well plate with 200 µL PBS per well. The NTA sensors were pre-wetted for at least 15 minutes. The target protein α9 nAChR was diluted in PBS to 5 µg/mL, with 200 µL added per well. Test peptides were dissolved in PBS and serially diluted threefold, with concentrations from high to low as 1000 nM, 333.3 nM, 111.1 nM, 37.04 nM, 12.35 nM, 4.115 nM, and 1.372 nM, with an additional well with PBS only as a zeroconcentration control. After equilibrating the instrument baseline, the NTA sensor was used to immobilize the target protein α9 nAChR. Once immobilization was complete, the baseline was re-equilibrated, followed by a 5-minute association and a 5-minute dissociation phase. Affinity measurements of the test peptides were conducted sequentially using the above procedure. The procedure for measuring peptide affinity to α7 nAChR was similar, except that the α7 nAChR concentration was 20 µg/mL. Tables 2 and 3 show the BLI-determined affinities of alanine-scan peptide analogs with target proteins, which identified sites on the parent peptide suitable for modification. Subsequently, single-site non-natural amino acid substituted peptides were evaluated by BLI for target protein affinity. Finally, multi-site combinatorial modified peptides were measured for affinity by BLI, leading to the selection of high-affinity peptides for further screen and drug development potential. Table 2 Test Results for Affinity of Modified Peptides to α9 nAChR

α9 nAChR = target: T1, α9 nAChR (human, UniProt Q9UGM1 23-238); experiment: BLI, α9 nAChR captured on NTA sensor, peptide 1.372-1000 nM in solution
T1 construct: also called target protein α9 nAChR; α9 nicotinic acetylcholine receptor

α7 nAChR [4] = target: T2, α7 nAChR (human, UniProt P36544 23-233); experiment: BLI, α7 nAChR captured on NTA sensor, peptide in solution
T2 construct: also called target protein α7 nAChR; α7 nicotinic acetylcholine receptor
T2 sequence (P36544 23-233 limits assumed): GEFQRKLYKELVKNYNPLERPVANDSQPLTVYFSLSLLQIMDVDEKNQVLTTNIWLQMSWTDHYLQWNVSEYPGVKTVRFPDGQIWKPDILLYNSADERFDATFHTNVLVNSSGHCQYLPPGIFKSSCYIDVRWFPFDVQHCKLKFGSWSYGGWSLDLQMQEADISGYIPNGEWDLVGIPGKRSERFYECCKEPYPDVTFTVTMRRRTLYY

T1 sequence (Q9UGM1 23-238 limits assumed): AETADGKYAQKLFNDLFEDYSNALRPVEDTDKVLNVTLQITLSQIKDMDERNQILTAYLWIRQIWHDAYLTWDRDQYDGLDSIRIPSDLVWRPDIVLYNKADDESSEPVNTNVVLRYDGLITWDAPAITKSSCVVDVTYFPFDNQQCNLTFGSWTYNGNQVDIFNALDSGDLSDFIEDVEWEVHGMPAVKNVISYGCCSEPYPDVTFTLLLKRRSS

## CCCC[C@H](NC(=O)[C@@H](NC(=O)[C@H]1CSSC[C@H](NC(=O)[C@H](CO)NC(=O)CN)C(=O)N[C@@H](CO)C(=O)N[C@H]([C@H](C)O)C(=O)N2C[C@H](O)C[C@H]2C(=O)N2C[C@H](O)C[C@H]2C(=O)N[C@@H](CO)C(=O)N1)C(C)C)C(=O)N[C@@H](Cc1ccc(-c2ccccc2)cc1)C(=O)N[C@@H](CCCN)C(N)=O [AJ003-34, GSCS-(D-Thr)-Hyp-Hyp-S-(D-Cys)-V-Nle-Bip-Orn-NH2 (3,9 disulfide bond)] (H-GSCS[dT][Hyp][Hyp]S[dC]V[Nle][Bip][Orn]-NH2; disulfide 3-9)
[1]
  half-life at 2 mg/mL: 61.9 h
[2]
  ranking among the five candidate modified peptides: top three analgesic candidates
α7 nAChR [3]
  Kd: 360 nM

## CCCC[C@H](NC(=O)[C@@H](NC(=O)[C@H]1CSSC[C@H](NC(=O)[C@H](CO)NC(=O)CN)C(=O)N[C@@H](CO)C(=O)N[C@H]([C@H](C)O)C(=O)N2C[C@H](O)C[C@H]2C(=O)N2C[C@H](O)C[C@H]2C(=O)NC(C)(C)C(=O)N1)C(C)C)C(=O)N[C@@H](Cc1ccccc1)C(=O)N[C@@H](CCCN)C(N)=O [AJ003-39, GSCS-(D-Thr)-Hyp-Hyp-Aib-(D-Cys)-V-Nle-F-Orn-NH2 (3,9 disulfide bond)] (H-GSCS[dT][Hyp][Hyp][Aib][dC]V[Nle]F[Orn]-NH2; disulfide 3-9)
[1]
  half-life at 2 mg/mL: 43 h
α7 nAChR [3]
  Kd: 410 nM

## CCCC[C@H](NC(=O)[C@@H](NC(=O)[C@H]1CSSC[C@H](NC(=O)[C@H](CO)NC(=O)CN)C(=O)N[C@@H](CO)C(=O)N[C@H]([C@H](C)O)C(=O)N2C[C@H](O)C[C@H]2C(=O)N2C[C@H](O)C[C@H]2C(=O)N[C@@H](C)C(=O)N1)C(C)C)C(=O)N[C@@H](Cc1c[nH]c2ccccc12)C(=O)N[C@@H](CCCN)C(N)=O [AJ003-41, GSCS-(D-Thr)-Hyp-Hyp-A-(D-Cys)-V-Nle-W-Orn-NH2 (3,9 disulfide bond)] (H-GSCS[dT][Hyp][Hyp]A[dC]V[Nle]W[Orn]-NH2; disulfide 3-9)
[1]
  half-life at 2 mg/mL: 30 h
α7 nAChR [3]
  Kd: 110 nM

## CCCC[C@H](NC(=O)[C@@H](NC(=O)[C@H]1CSSC[C@H](NC(=O)[C@H](CO)NC(=O)CN)C(=O)N[C@@H](CO)C(=O)N[C@H]([C@H](C)O)C(=O)N2C[C@H](O)C[C@H]2C(=O)N2C[C@H](O)C[C@H]2C(=O)NC(C)(C)C(=O)N1)C(C)C)C(=O)N[C@@H](Cc1c[nH]c2ccccc12)C(=O)N[C@@H](CCCN)C(N)=O [AJ003-42, GSCS-(D-Thr)-Hyp-Hyp-Aib-(D-Cys)-V-Nle-W-Orn-NH2 (3,9 disulfide bond)] (H-GSCS[dT][Hyp][Hyp][Aib][dC]V[Nle]W[Orn]-NH2; disulfide 3-9)
[1]
  half-life at 2 mg/mL: 61.4 h
α7 nAChR [3]
  Kd: 21.2 nM

B1: AJ003-13 (peptide)
peptide: GACS[dT]PPS[dC]VLYS
modifications: disulfide 3-9
notes: Printed: GACS-(D-Thr)-PPS-(D-Cys)-VLYS (3,9 disulfide bond)
α9 nAChR
  Kd: 6690 nM

B2: AJ003-12 (peptide)
peptide: ASCS[dT]PPS[dC]VLYS
modifications: disulfide 3-9
notes: Printed: ASCS-(D-Thr)-PPS-(D-Cys)-VLYS (3,9 disulfide bond)
α9 nAChR
  Kd: 31600 nM

B3: AJ003-22 (peptide)
peptide: GSCS[dT]PPS[dC]VLYA
modifications: disulfide 3-9
notes: Printed: GSCS-(D-Thr)-PPS-(D-Cys)-VLYA (3,9 disulfide bond)
α9 nAChR
  Kd: 163 nM

B4: AJ003-19 (peptide)
peptide: GSCS[dT]PPS[dC]ALYS
modifications: disulfide 3-9
notes: Printed: GSCS-(D-Thr)-PPS-(D-Cys)-ALYS (3,9 disulfide bond)
α9 nAChR
  Kd: 317 nM

B5: AJ003-14 (peptide)
peptide: GSCA[dT]PPS[dC]VLYS
modifications: disulfide 3-9
notes: Printed: GSCA-(D-Thr)-PPS-(D-Cys)-VLYS (3,9 disulfide bond)
α9 nAChR
  Kd: 13900 nM

B6: AJ003-1 (peptide)
peptide: GSCS[dT]PPS[dC]VLYS
modifications: disulfide 3-9
notes: Printed: GSCS-(D-Thr)-PPS-(D-Cys)-VLYS (3,9 disulfide bond)
α9 nAChR
  Kd: 86 nM
α7 nAChR [4]
  Kd: 22 nM

B7: AJ003-30 (peptide)
peptide: GSCS[dT]PPS[dC]VLWS
modifications: disulfide 3-9
notes: Printed: GSCS-(D-Thr)-PPS-(D-Cys)-VLWS (3,9 disulfide bond)
α7 nAChR [4]
  Kd: 27.8 nM

B8: AJ003-21 (peptide)
peptide: GSCS[dT]PPS[dC]VLAS
modifications: disulfide 3-9
notes: Printed: GSCS-(D-Thr)-PPS-(D-Cys)-VLAS (3,9 disulfide bond)
α9 nAChR
  Kd: 514 nM

B9: AJ003-26 (peptide)
peptide: GSCS[dT]PPS[dC]GLYS
modifications: disulfide 3-9
notes: Printed: GSCS-(D-Thr)-PPS-(D-Cys)-GLYS (3,9 disulfide bond)
α7 nAChR [4]
  Kd: 6830 nM

B10: AJ003-18 (peptide)
peptide: GSCS[dT]PPA[dC]VLYS
modifications: disulfide 3-9
notes: Printed: GSCS-(D-Thr)-PPA-(D-Cys)-VLYS (3,9 disulfide bond)
α9 nAChR
  Kd: 42.6 nM

B11: AJ003-27 (peptide)
peptide: GSCS[dT]PPS[dC]VIYS
modifications: disulfide 3-9
notes: Printed: GSCS-(D-Thr)-PPS-(D-Cys)-VIYS (3,9 disulfide bond)
α7 nAChR [4]
  Kd: 323 nM

B12: AJ003-24 (peptide)
peptide: GSCS[dT]PPG[dC]VLYS
modifications: disulfide 3-9
notes: Printed: GSCS-(D-Thr)-PPG-(D-Cys)-VLYS (3,9 disulfide bond)
α7 nAChR [4]
  Kd: 14000 nM

B13: AJ003-20 (peptide)
peptide: GSCS[dT]PPS[dC]VAYS
modifications: disulfide 3-9
notes: Printed: GSCS-(D-Thr)-PPS-(D-Cys)-VAYS (3,9 disulfide bond)
α9 nAChR
  Kd: 16.3 nM

Reference: EP4725956A1, “MODIFIED POLYPEPTIDE AND USE THEREOF IN FIELD OF ANALGESIA” (Nanjing Anji Biotechnology Co., Ltd., priority 2023, dated 2024)
